Test [1] addresses T1, PSD-95 61-724 6xHis (human, UniProt P78352 61-724). The experiment in a line: fluorescence polarisation.
For test [2], the target named is T2, PSD-95 61-724 6xHis pSer73 (human, UniProt P78352 61-724, phosphoserine at 73). The experiment in a line: co-sedimentation.
The target of test [3] is T3, PSD-95 61-724 6xHis pSer142 (human, UniProt P78352 61-724, phosphoserine at 142). The experiment in a line: co-sedimentation.
For test [4], the target named is T1, PSD-95 61-724 6xHis. The experiment in a line: co-sedimentation.
Test [5] has as its target T3, PSD-95 61-724 6xHis pSer142. Description: fluorescence polarisation.
Test [6] concerns the target T2, PSD-95 61-724 6xHis pSer73. The experiment in a line: fluorescence polarisation.

Ends that are not written are not given here.

In test [1], {TAMRA}-NNGYEKLSSIESDV [Peptide ligand: GluN2B (TAMRA-NNG-YEKLSSIESDV)] had a Kd of 1200 nM.

B1: GluN2B cytoplasmic tail (aa 1170-1482) (domain or fragment)
chain: GGPCTNRSHLKHGTGEKHGVVGGVPAPWEKNLTNVDWEDRSGGNFCRSCPSKLHNYSSTVAGQNSGRQACIRCEACKKAGNLYDISEDNSLQELDQPAAPVAVTSNASSTKYPQSPTNSKAQKKNRNKLRRQHSYDTFVDLQKEEAALAPRSVSLKDKGRFMDGSPYAHMFEMPAGESSFANKSSVPTAGHHHNNPGSGYMLSKSLYPDRVTQNPFIPTFGDDQCLLHGSKSYFFRQPTVAGASKTRPDFRALVTNKPVVVTLHGAVPGRFQKDICIGNQSNPCVPNNKNPRAFNGSSNGHVYEKLSSIESDV
Consider B1, for which the binding result in test [2], in test [3] and in test [4] was “binds” throughout.

On to {TAMRA}-NNGSNAKAVETDV [Peptide ligand: Kv1.4 (TAMRA-NNG-SNAKAVETDV)], for which the binding result in test [5] and in test [1] was “binds” in each case.

{TAMRA}-NNGNTANRRTTPV [Peptide ligand: Stargazin (TAMRA-NNG-NTANRRTTPV)] had a Kd in test [1] of 2700 nM. This counts as single-digit micromolar.

Turning to {TAMRA}-NNGPAGKHMVTEV [Peptide ligand: Kv1.7 (TAMRA-NNG-PAGKHMVTEV)], the binding result in test [5] and in test [1] was “binds” each time.

As for {TAMRA}-NNGKKMPSIESDV [Peptide ligand: GluN2A (TAMRA-NNG-KKMPSIESDV)], the binding result in test [6] and in test [1] was “binds” each time.
